Test results from patent US20080267908A1 (YEDA RESEARCH AND DEVELOPMENT, published 2008).

T1: 125I-IL-32 (radio-iodinated IL-32)
T1 chain: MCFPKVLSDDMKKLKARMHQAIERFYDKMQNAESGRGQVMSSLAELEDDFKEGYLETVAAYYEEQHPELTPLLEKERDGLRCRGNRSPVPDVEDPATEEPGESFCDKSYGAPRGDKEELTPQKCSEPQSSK

T2: commercially available human PR-3 (Athens Research and Technology) inactivated by PMSF (human, UniProt P24158 28-248, inactivated by PMSF; the modified residue is not stated)
T2 construct: mature; Same product as the commercial PR-3, treated with PMSF before the assay; also called PMSF pretreated commercial PR-3
T2 sequence (looked up): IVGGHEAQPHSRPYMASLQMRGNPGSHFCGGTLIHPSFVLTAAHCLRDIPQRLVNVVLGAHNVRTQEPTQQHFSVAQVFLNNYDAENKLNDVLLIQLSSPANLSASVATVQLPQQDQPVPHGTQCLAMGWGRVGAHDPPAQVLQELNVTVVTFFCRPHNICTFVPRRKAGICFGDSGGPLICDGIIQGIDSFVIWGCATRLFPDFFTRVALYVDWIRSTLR

T3: human urinary Proteinase-3 (PR-3), affinity purified (elution fraction 3 of the IL-32 column), active (human, UniProt P24158 28-248)
T3 construct: mature; also called urinary PR-3; urinary PR3
T3 sequence (looked up): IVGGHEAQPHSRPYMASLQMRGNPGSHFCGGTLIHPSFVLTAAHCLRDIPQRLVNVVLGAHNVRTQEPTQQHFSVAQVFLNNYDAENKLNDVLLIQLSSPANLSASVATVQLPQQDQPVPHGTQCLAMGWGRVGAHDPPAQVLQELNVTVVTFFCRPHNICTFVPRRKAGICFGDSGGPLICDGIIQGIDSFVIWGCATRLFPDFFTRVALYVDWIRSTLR

T4: human urinary PR-3 inactivated by phenyl methyl sulfonyl fluoride (PMSF) (human, UniProt P24158 28-248, inactivated by PMSF (1 mM); the modified residue is not stated)
T4 construct: mature; Same preparation as the urinary PR-3, treated with PMSF before the assay; also called PMSF pretreated urinary PR-3
T4 sequence (looked up): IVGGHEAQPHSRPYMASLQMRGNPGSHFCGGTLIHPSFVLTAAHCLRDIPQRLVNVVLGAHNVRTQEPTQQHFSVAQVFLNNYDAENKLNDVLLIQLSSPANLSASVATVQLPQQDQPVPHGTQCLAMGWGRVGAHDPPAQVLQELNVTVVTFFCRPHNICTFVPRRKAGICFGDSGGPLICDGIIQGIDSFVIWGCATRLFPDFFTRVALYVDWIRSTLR

T5: commercially available human neutrophil derived PR-3 (Athens Research and Technology), active (human, UniProt P24158 28-248)
T5 construct: mature; Bought; purified from human neutrophils; also called commercial PR-3; commercially available PR-3
T5 sequence (looked up): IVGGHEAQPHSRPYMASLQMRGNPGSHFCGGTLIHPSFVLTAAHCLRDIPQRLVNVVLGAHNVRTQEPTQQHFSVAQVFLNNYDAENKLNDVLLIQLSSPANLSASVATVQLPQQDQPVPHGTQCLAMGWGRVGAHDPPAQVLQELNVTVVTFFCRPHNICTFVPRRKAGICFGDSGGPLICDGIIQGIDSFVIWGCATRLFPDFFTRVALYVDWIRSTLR


How the values were obtained:
[1] = molecular target: T1, 125I-IL-32 (radio-iodinated IL-32)
[2] = molecular target: T2, commercially available human PR-3 …; assay: SPR (BIAcore), IL-32 immobilized; commercial PR-3 inactivated by PMSF (FIG. 3B)
Procedure: (§1) FIG. 2 A. IL-32 (20 μg/ml) in acetate buffer pH 4.6) was immobilized to a single channel of a BIAcore chip as recommended by the manufacturer (Amersham Pharmacia, Uppsala Sweden). […] The resulting kD was 7.9×10⁻⁸ M.
(§2) For details see FIG. 2. The binding data gave a kD of 1.2×10⁻⁸ M with active PR-3, which considerably degraded the immobilized IL-32 (FIG. 3 A). The kD of commercially available PR-3 that was inactivated by PMSF (FIG. 3 B) was 3.5×10⁻⁸ M.
(§3) IL-32 (20 μg/ml) in acetate buffer pH 4.6) was immobilized to a single channel of a BIAcore chip as recommended by the manufacturer (Amersham Pharmacia, Uppsala Sweden). […] The same analysis was done with PR-3 that was inactivated by PMSF (1 mM) (FIG. 2B). The resulting kD was 7.9×10⁻⁸ M. The same analysis was done with a commercially available human neutrophil derived PR-3 (Athens Research and Technology, Athens Ga., 0.5 μg in 20 μl gelatin solution) (FIG. 3A). The resulting kD was 1.2×10⁻⁸ M. The binding was repeated with commercial PR-3 that was inactivated by PMSF (FIG. 3B). The resulting kD was 3.5×10⁻⁸ M.

[3] = molecular target: T3, human urinary Proteinase-3 (PR-3), …; assay: SPR (BIAcore), IL-32 immobilized, PR-3 at 10-80 nM; urinary PR3, active (FIG. 2A)
Procedure: as §1, §3

[4] = molecular target: T4, human urinary PR-3 inactivated by …; assay: SPR (BIAcore), IL-32 immobilized; urinary PR-3 inactivated by PMSF (1 mM) (FIG. 2B)
Procedure: as §1, §3

[5] = molecular target: T5, commercially available human neutrophil …; assay: SPR (BIAcore), IL-32 immobilized; commercial neutrophil-derived PR-3, active (FIG. 3A)
Procedure: as §1, §2, §3

Row | Binder | cleavage of 125I-IL-32 (SDS-PAGE, autoradiography) [1] | also measured
1 | human urinary Proteinase-3 (PR-3), affinity purified (elution fraction 3 of the IL-32 column), active (protein) IVGGHEAQPHSRPYMASLQMRGNPGSHFCGGTLIHPSFVLTAAHCLRDIPQRLVNVVLGAHNVRTQEPTQQHFSVAQVFLNNYDAENKLNDVLLIQLSSPANLSASVATVQLPQQDQPVPHGTQCLAMGWGRVGAHDPPAQVLQELNVTVVTFFCRPHNICTFVPRRKAGICFGDSGGPLICDGIIQGIDSFVIWGCATRLFPDFFTRVALYVDWIRSTLR | the 20 kDa band completely disappeared and the levels of the 16 and 13 kDa IL-32 cleavage products increased after a 5 min. incubation with PR-3 | 
2 | commercially available human PR-3 (Athens Research and Technology) inactivated by PMSF (protein) IVGGHEAQPHSRPYMASLQMRGNPGSHFCGGTLIHPSFVLTAAHCLRDIPQRLVNVVLGAHNVRTQEPTQQHFSVAQVFLNNYDAENKLNDVLLIQLSSPANLSASVATVQLPQQDQPVPHGTQCLAMGWGRVGAHDPPAQVLQELNVTVVTFFCRPHNICTFVPRRKAGICFGDSGGPLICDGIIQGIDSFVIWGCATRLFPDFFTRVALYVDWIRSTLR | no cleavage products were observed with PMSF pretreated PR-3 incubated with IL-32 | 
3 | commercially available human neutrophil derived PR-3 (Athens Research and Technology), active (protein) IVGGHEAQPHSRPYMASLQMRGNPGSHFCGGTLIHPSFVLTAAHCLRDIPQRLVNVVLGAHNVRTQEPTQQHFSVAQVFLNNYDAENKLNDVLLIQLSSPANLSASVATVQLPQQDQPVPHGTQCLAMGWGRVGAHDPPAQVLQELNVTVVTFFCRPHNICTFVPRRKAGICFGDSGGPLICDGIIQGIDSFVIWGCATRLFPDFFTRVALYVDWIRSTLR | the commercial PR-3 is more potent than the urinary PR-3, leading to complete disappearance of the 20 kDa IL-32 band within 1 min | 
4 | human urinary PR-3 inactivated by phenyl methyl sulfonyl fluoride (PMSF) (protein) IVGGHEAQPHSRPYMASLQMRGNPGSHFCGGTLIHPSFVLTAAHCLRDIPQRLVNVVLGAHNVRTQEPTQQHFSVAQVFLNNYDAENKLNDVLLIQLSSPANLSASVATVQLPQQDQPVPHGTQCLAMGWGRVGAHDPPAQVLQELNVTVVTFFCRPHNICTFVPRRKAGICFGDSGGPLICDGIIQGIDSFVIWGCATRLFPDFFTRVALYVDWIRSTLR | no cleavage products were observed with PMSF pretreated PR-3 incubated with IL-32 | 
5 | recombinant human IL-32α produced in E. coli (ligand, also called hrIL-32; human recombinant IL-32) MCFPKVLSDDMKKLKARMHQAIERFYDKMQNAESGRGQVMSSLAELEDDFKEGYLETVAAYYEEQHPELTPLLEKERDGLRCRGNRSPVPDVEDPATEEPGESFCDKSYGAPRGDKEELTPQKCSEPQSSK |  | Kd [2]: 35 nM; Kd [3]: 26.5 nM; Kd [4]: 79 nM; Kd [5]: 12 nM
